Results on two substances are retold here after PMC11409674, “Raffinocyclicin is a novel plasmid-encoded circular bacteriocin produced by Lactococcus raffinolactis with broad-spectrum activity against many gram-positive food pathogens” (Applied and environmental microbiology, 2024).

The test system of one data set is proteases. More on the design: method as in 4 sources, ref 33 = [33]; PMID 21948835; doi:10.1128/AEM.06348-11; 33 Masuda Y Ono H Kitagawa H Ito H Mu F Sawa N Zendo T Sonomoto K Identification and characterization of leucocyclicin Q, a novel cyclic bacteriocin produced by Leuconostoc mesenteroides TK41401 Appl ||| ref 27 = [27]; PMID 21057028; doi:10.1128/AEM.01173-10; 27 Borrero J Brede DA Skaugen M Diep DB Herranz C Nes IF Cintas LM Hernández PE Characterization of garvicin ML, a novel circular bacteriocin produced by Lactococcus garvieae DCC43, isolated from mall ||| ref 30 = [30]; PMID 29177092; doi:10.1099/mgen.0.000134; 30 van Heel AJ Montalban-Lopez M Oliveau Q Kuipers OP Genome-guided identification of novel head-to-tail cyclized antimicrobial peptides, exemplified by the discovery of pumilarin Microb Genom 2017 3 ||| ref 29 = [29]; PMID 18552180; doi:10.1128/AEM.00817-08; 29 Martin-Visscher LA van Belkum MJ Garneau-Tsodikova S Whittal RM Zheng J McMullen LM Vederas JC Isolation and characterization of carnocyclin A, a novel circular bacteriocin produced by Carnobacteri. The note with it: cited from earlier work.

In the next data set the target is T1, proteinase K (Parengyodontium album, UniProt P06873).
T1 construct: purchased Sigma-Aldrich, St Louis, USA
T1 sequence (P06873 106-384): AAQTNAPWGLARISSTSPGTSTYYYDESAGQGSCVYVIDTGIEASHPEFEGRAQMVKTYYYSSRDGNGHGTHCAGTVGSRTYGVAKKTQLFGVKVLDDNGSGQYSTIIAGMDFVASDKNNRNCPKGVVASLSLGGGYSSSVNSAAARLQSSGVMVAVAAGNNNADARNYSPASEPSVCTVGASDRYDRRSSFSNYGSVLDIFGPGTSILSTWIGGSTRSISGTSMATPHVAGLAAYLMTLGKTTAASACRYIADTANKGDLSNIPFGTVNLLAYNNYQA
Description: residual antimicrobial activity after proteinase K treatment. The settings on record: proteinase K 1 mg/mL, 37 °C, 4 h. In kind it is in vitro ADME.

Take “carnocyclin A (LVAYGIAQGTAEKVVSLINAGLTVGSIISILGGVTVGLSGVFTAVKAAIAKQGIKKAIQL; UniProt B2MVM5 5-64, looked up) [circular bacteriocin]”: the “antimicrobial activity after protease treatment” value in the data set with proteases is reported as “completely abolished”.
As for raffinocyclicin, the “loss of activity when treated with proteinase K” value in the data set with proteinase K (indicator L. lactis HP) is “over 90%”. In addition, the Phenotype result with proteinase K (40 µL spotted around chloroform-inactivated producer spot, overlay L. lactis HP, 30 °C, 24 h) was “S”. The same substance displayed a Residual activity in the data set with proteinase K (40 µL spotted around chloroform-inactivated producer spot, overlay L. lactis HP, 30 °C, 24 h, true halo treated/control (10 mM PBS pH 7.4) × 100) of 7%.
